Here are results for one molecule from US20230242646A1 (JJP BIOLOGICS SP Z O O, published 2023).

In test [1] the target is T1, membrane-bound full-length human CD89 on HEK293F cells (human, UniProt P24071 22-287).
T1 construct: 2 or transient transfectants; also called membrane human CD89; human FcaRI
The experiment in a line: FACS HEK293F-huCD89.
Description: After extensive washing in PBS/BSA/NaN₃, cells were subsequently incubated with 1:200 diluted PE-conjugated goat anti-human IgG Fcy-specific antibodies (Jackson ImmunoResearch) for 30 minutes at 4° C. After extensive washing in PBS/BSA/NaN₃, cells were fixed in 2% formaldehyde in PBS/BSA/NaN₃ for 30 minutes at 4° C.

In test [2] the target is T2, recombinant C-terminal polyhistidine-tagged human (extracellular) CD89 (Sino Biological) (human, UniProt P24071 22-227).
T2 construct: extracellular domain; bought protein; also called rhuCD89; soluble monomeric rhuCD89
The experiment in a line: ELISA, coated rhuCD89. A general note: An ELISA detects its analyte on a solid surface through an enzyme-linked reagent.
Description: (§1) After extensive washing with PBS/0.05% Tween 20, plates were blocked with PBS/0.05% Tween 20/1% BSA (Roche) for 1 hour at RT. Subsequently, plates were incubated with 50 µL titrated (in block buffer) purified mouse anti-human CD89 antibody/well for 1 hour at RT. […] After extensive washing in PBS/0.05% Tween 20, binding of antibodies on rhuCD89 was determined with 1:5,000 diluted horseradish peroxidase (HRP)-conjugated goat anti-mouse IgG Fcy-specific antibodies (Jackson ImmunoResearch) for 1 hour at RT, followed by a ready-to-use solution of TMB substrate (Invitrogen) for colorimetric detection.
After extensive washing with PBS/0.05% Tween 20, plates were blocked with PBS/0.05% Tween 20/1% BSA (Roche) for 1 hour at RT. […] After extensive washing in PBS/0.05% Tween 20, binding of antibodies on rhuCD89 was determined with 1:5,000 diluted horseradish peroxidase (HRP)-conjugated goat anti-human IgG Fcy-specific antibodies (Jackson ImmunoResearch) for 1 hour at RT, followed by a ready-to-use solution of TMB substrate (Invitrogen) for colorimetric detection.

Test [3] deals with T1, membrane-bound full-length human CD89 …. The experiment in a line: FACS on HEK293F-huCD89.
Description: Then, 10 µL/tube (i.e., 0.1 x 10⁶ cells) of these cells were incubated with 100 µL titrated (in PBS/BSA/NaN₃) purified mouse anti-human CD89 antibody/tube for 30 minutes at 4° C. […] After extensive washing in PBS/BSA/NaN₃, cells were subsequently incubated with 1:200 diluted PE-conjugated goat anti-mouse IgG Fcy-specific antibodies (Jackson ImmunoResearch) for 30 minutes at 4° C. After extensive washing in PBS/BSA/NaN₃, cells were fixed in 2% formaldehyde in PBS/BSA/NaN₃ for 30 minutes at 4° C.
In test [4] the target is T2, recombinant C-terminal …. Nature of the test: ELISA on coated rhuCD89.
Description: as §1
Test [5] concerns the target T1, membrane-bound full-length human CD89 …. The experiment in a line: FACS HEK293F-huCD89, 10 ug/mL; competitor PE-A3.
Description: (§2) Then, 10 µL/tube (i.e., 0.1 × 10⁶ cells) of these cells were incubated with or without 100 µL purified mouse anti-human CD89 antibody at 10 µg/mL (in PBS/BSA/NaN₃) for 30 minutes at 4° C. […] After extensive washing in PBS/BSA/NaN₃, cells were fixed in 2% formaldehyde in PBS/BSA/NaN₃ for 30 minutes at 4° C.
Test [6] has the same target. The experiment in a line: FACS HEK293F-huCD89, 10 ug/mL; competitor PE-A59.
Description: as §2
Test [7] shares this target. Nature of the test: FACS HEK293F-huCD89, 10 ug/mL; competitor PE-MIP8a.
Description: as §2
Test [8] addresses T3, chimeric bovine EC1-Fcgamma2R/human EC2-CD89 on HEK293F cells (bovine/human chimera).
T3 chain: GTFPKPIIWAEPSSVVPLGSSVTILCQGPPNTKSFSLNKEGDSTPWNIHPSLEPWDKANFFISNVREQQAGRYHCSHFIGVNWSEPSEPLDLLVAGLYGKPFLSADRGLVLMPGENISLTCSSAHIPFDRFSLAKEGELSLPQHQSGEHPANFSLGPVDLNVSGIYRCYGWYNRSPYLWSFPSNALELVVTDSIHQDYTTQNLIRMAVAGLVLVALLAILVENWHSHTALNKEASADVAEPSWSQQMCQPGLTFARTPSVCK
The experiment in a line: FACS, transiently transfected HEK293F. A general note: A flow cytometer gives signals particle by particle.

Test [9] has as its target T4, membrane full-length cynomolgus monkey CD89 on HEK293F cells (cynomolgus monkey).
T4 construct: also called cynoCD89; cynomolgus EC1-CD89
T4 chain: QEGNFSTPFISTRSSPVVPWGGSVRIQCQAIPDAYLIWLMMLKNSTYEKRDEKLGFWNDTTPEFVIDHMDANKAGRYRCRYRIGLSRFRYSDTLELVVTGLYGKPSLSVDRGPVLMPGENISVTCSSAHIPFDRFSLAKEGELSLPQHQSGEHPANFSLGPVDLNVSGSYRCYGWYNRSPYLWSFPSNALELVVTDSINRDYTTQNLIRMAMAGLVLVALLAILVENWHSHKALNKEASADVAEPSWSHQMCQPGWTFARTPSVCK
Nature of the test: FACS, transiently transfected HEK293F.
Description: To this end, transient transfected HEK293F cells were put at 10 x 10⁶ cells/mL in ice-chilled phosphate-buffered saline containing 0.1% BSA (Sigma)/0.05% NaN₃ (PBS/BSA/NaN₃) supplemented with 50 µg/mL human IgGs (blocking FcY receptors; Sigma) for 10 minutes at 4° C. Then, 10 µL/tube (i.e., 0.1 × 10⁶ cells) of these cells were incubated with or without 100 µL purified mouse anti-human CD89 antibody at 10 µg/mL (in PBS/BSA/NaN₃) for 30 minutes at 4° C. […] After extensive washing in PBS/BSA/NaN₃, cells were subsequently incubated with 1:200 diluted PE-conjugated goat anti-mouse IgG Fcy-specific antibodies (Jackson ImmunoResearch) for 30 minutes at 4° C. After extensive washing in PBS/BSA/NaN₃, cells were fixed in 2% formaldehyde in PBS/BSA/NaN₃ for 30 minutes at 4° C.

The target in test [10] is T5, chimeric human/cynomolgus monkey CD89-III on HEK293F cells (human/cynomolgus chimera, UniProt P24071 22-287).
T5 construct: also called dGly72 - Gly96 human EC1-CD89; III (72-96)
T5 chain: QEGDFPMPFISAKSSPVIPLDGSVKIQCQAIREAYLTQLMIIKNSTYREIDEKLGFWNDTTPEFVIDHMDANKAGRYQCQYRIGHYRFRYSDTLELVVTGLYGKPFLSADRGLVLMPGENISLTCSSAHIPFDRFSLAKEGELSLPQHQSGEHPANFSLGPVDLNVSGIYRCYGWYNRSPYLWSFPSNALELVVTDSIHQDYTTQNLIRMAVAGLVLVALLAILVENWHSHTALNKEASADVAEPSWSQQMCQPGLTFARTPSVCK
The experiment in a line: FACS, transiently transfected HEK293F.
Description: (§3) To this end, transient transfected HEK293F cells were put at 10 × 10⁶ cells/mL in ice-chilled phosphate-buffered saline containing 0.1% BSA (Sigma)/0.05% NaN₃ (PBS/BSA/NaN₃) supplemented with 50 µg/mL human IgGs (blocking FcY receptors; Sigma) for 10 minutes at 4° C. Then, 10 µL/tube (i.e., 0.1 × 10⁶ cells) of these cells were incubated with or without 100 µL purified mouse anti-human CD89 antibody at 10 µg/mL (in PBS/BSA/NaN₃) for 30 minutes at 4° C. […] After extensive washing in PBS/BSA/NaN₃, cells were subsequently incubated with 1:200 diluted PE-conjugated goat anti-mouse IgG Fcy-specific antibodies (Jackson ImmunoResearch) for 30 minutes at 4° C. After extensive washing in PBS/BSA/NaN₃, cells were fixed in 2% formaldehyde in PBS/BSA/NaN₃ for 30 minutes at 4° C.

The target of test [11] is T6, chimeric human/cynomolgus monkey CD89-hotspots on HEK293F cells (human/cynomolgus chimera, UniProt P24071 22-287).
T6 construct: also called dThr58, Gln59; dArg73, Arg74, Lys76
T6 chain: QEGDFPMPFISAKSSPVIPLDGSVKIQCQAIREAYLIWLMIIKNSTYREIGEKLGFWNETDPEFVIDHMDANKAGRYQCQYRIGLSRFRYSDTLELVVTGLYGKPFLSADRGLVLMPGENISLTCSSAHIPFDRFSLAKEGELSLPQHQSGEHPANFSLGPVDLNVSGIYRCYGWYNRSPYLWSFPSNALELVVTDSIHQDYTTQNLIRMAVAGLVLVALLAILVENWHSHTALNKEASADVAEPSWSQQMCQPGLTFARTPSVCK
Nature of the test: FACS, transiently transfected HEK293F.
Description: as §3

Test [12] deals with T7, chimeric human/cynomolgus monkey CD89-I on HEK293F cells (human/cynomolgus chimera, UniProt P24071 22-287).
T7 construct: also called dGln22 - Lys46 human EC1-CD89; I (22-46)
T7 chain: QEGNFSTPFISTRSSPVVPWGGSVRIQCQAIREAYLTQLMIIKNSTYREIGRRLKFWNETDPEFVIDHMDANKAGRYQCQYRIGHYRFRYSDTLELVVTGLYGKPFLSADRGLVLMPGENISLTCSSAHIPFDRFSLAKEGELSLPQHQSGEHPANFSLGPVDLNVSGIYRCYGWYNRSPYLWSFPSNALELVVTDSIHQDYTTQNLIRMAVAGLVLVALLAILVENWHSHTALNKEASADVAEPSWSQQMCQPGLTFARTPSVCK
The experiment in a line: FACS, 10 µg/mL, transiently transfected HEK293F.
Description: as §3

The target in test [13] is T8, chimeric human/cynomolgus monkey CD89-II on HEK293F cells (human/cynomolgus chimera, UniProt P24071 22-287).
T8 construct: also called dIle47 - Ile71 human EC1-CD89; II (47-71)
T8 chain: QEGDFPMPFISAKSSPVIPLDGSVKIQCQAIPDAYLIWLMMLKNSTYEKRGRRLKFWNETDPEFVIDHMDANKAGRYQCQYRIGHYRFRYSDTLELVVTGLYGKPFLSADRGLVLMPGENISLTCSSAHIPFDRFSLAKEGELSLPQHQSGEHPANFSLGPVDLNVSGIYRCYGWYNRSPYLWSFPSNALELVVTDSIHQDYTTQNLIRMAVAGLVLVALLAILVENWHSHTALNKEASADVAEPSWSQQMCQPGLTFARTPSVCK
The experiment in a line: FACS, 10 µg/mL, transiently transfected HEK293F.
Description: as §3

Test [14] addresses T9, chimeric human/cynomolgus monkey CD89-IV on HEK293F cells (human/cynomolgus chimera, UniProt P24071 22-287).
T9 construct: also called dArg97 - Gly121 human EC1-CD89
T9 chain: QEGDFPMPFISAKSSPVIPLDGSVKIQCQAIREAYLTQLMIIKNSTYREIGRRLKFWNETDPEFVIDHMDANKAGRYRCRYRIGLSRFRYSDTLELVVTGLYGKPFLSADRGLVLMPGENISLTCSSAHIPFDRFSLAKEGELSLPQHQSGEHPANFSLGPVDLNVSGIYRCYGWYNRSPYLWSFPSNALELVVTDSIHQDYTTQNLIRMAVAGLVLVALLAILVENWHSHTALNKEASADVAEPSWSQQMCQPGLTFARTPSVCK
The experiment in a line: FACS, 10 µg/mL, transiently transfected HEK293F.
Description: as §3

In test [15] the target is T1, membrane-bound full-length human CD89 …. The experiment in a line: FACS, antibody before serum IgA on HEK293F-huCD89; IgA detected.
Description: Then, 10 µL/tube (i.e., 0.1 x 10⁶ cells) of these cells were incubated with 50 µL titrated (in PBS/BSA/NaN₃) purified mouse anti-human CD89 antibody/tube for 30 minutes at 4° C. […] After extensive washing in PBS/BSA/NaN₃, 1:200 diluted PE-conjugated streptavidin (Jackson ImmunoResearch) was added, and incubated for 30 minutes at 4° C. After extensive washing in PBS/BSA/NaN₃, cells were fixed in 2% formaldehyde in PBS/BSA/NaN₃ for 30 minutes at 4° C.
The target in test [16] is T2, recombinant C-terminal …. The experiment in a line: ELISA, antibody before serum IgA on coated rhuCD89; IgA detected.
Test [17] concerns the target T1, membrane-bound full-length human CD89 …. Nature of the test: FACS, antibody before secretory IgA on HEK293F-huCD89; IgA detected.
Description: Then, 10 µL/tube (i.e., 0.1 x 10⁶ cells) of these cells were incubated with or without 50 µL titrated (in PBS/BSA/NaN₃) purified mouse anti-human CD89 antibody/tube for 30 minutes at 4° C. […] After extensive washing in PBS/BSA/NaN₃, 1:200 diluted PE-conjugated streptavidin (Jackson ImmunoResearch) was added, and incubated for 30 minutes at 4° C. After extensive washing in PBS/BSA/NaN₃, cells were fixed in 4% formaldehyde in PBS/BSA/NaN₃ for 30 minutes at 4° C.

Some results are limits rather than exact numbers.

B1: CD89/IgA blocking mouse anti-human CD89-specific antibody 8F3 (antibody, V domains shown)
VH: EVQLVESGGGLVKPGGSLKLSCAASGFTFSNYGMSWVRQTPDKRLEWVATMHSGGTYTYYPDNVKGRFTISRDNAKNNLYLQMSSLRSEDTAMYYCARETGLYDGLFDFWGQGTTLTVSS
VL: DVQITQSPSYLAASPGETITINCRASKTISKYLAWYQEKPGKTNMLLIYSGSTLQSGVPSRFSGSGSGTDFTLTISSLEPEDLAMYYCQQHDEYPWTFGGGTKLEIK
notes: also called mouse 8F3
For the molecule B1, the EC50 was determined as 0.714 µg/mL in [1] and 0.052 µg/mL in [2]. In addition, the “EC50 (read off the curve)” value is roughly 0.4 µg/mL in test [3] and roughly 0.03 µg/mL in [4]. Further, the “% blocking of PE-A3 binding” value in test [5] is less than 25%. In addition, in test [6], the “% blocking of PE-A59 binding” value was less than 25%. Moreover, in test [7], the “% blocking of PE-MIP8a binding” value was less than 25%. Further, the binding result in test [8] is “no binding (tested: 10 µg/mL)”; in test [9] it was “no binding (tested: 10 µg/mL)”; in test [10], “no binding (tested: 10 µg/mL)”; in test [11], “no binding (tested: 10 µg/mL)”; in test [12], “binds”; in test [13] it was “binds”. In test [14], the binding result is recorded as “binds”. The “IC50 (read off the curve)” value in test [15] was roughly 0.8 µg/mL; in test [16], roughly 0.09 µg/mL; in test [17], roughly 0.8 µg/mL.

By EC50 is commonly meant the concentration giving half of the maximal effect. By EC50 (read off the curve) is commonly meant the midpoint of the concentration-response curve.
